Test system: Escherichia coli TOP10
Experiment: shrunken log2 fold change of peptide-encoding DNA abundance (4.5 h post-induction vs induction); higher = less antimicrobial activity (less host growth inhibition)
Details: time post-induction: 4.5 h; library: site-saturation at positions 5, 18, 19, 20
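Also: peptides expressed intracellularly from a pBAD plasmid library in pooled LB shake-flask culture, induced with 0.3% L-arabinose, DNA abundance read by NGS, three biological replicates, DESeq2 with apeglm shrinkage.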

| Sequence | shrunken log2 fold change |
| --- | --- |
| RRIRQRPPRLPRPRPRPTHFPRP | -0.0245 |
| RRIRERPPRLPRPRPRPQSWPRP | 0.104 |
| RRIRSRPPRLPRPRPRPWMCPRP | -0.391 |
| RRIRLRPPRLPRPRPRPLHGPRP | 0.0823 |
| RRIRDRPPRLPRPRPRPMETPRP | -0.00149 |
| RRIRQRPPRLPRPRPRPDISPRP | 0.0318 |
| RRIRARPPRLPRPRPRPTRNPRP | 0.657 |
| RRIRCRPPRLPRPRPRPKIMPRP | -0.622 |
| RRIRMRPPRLPRPRPRPEWNPRP | 0.406 |
| RRIRFRPPRLPRPRPRPNWVPRP | -0.126 |
| RRIRRRPPRLPRPRPRPTSVPRP | 0.227 |
| RRIRARPPRLPRPRPRPMDDPRP | 0.197 |
| RRIRTRPPRLPRPRPRPRYIPRP | -0.368 |
| RRIRKRPPRLPRPRPRPSFNPRP | 0.0137 |
| RRIRSRPPRLPRPRPRPKLEPRP | 0.165 |
| RRIRCRPPRLPRPRPRPIPSPRP | -0.308 |
| RRIRDRPPRLPRPRPRPQCYPRP | 0.0803 |
| RRIRMRPPRLPRPRPRPRQKPRP | 0.183 |
| RRIRSRPPRLPRPRPRPVEQPRP | -0.0605 |
| RRIRRRPPRLPRPRPRPPRKPRP | 1.5 |
| RRIRKRPPRLPRPRPRPDCEPRP | 1.96 |
| RRIRVRPPRLPRPRPRPKLLPRP | -0.0409 |
| RRIRQRPPRLPRPRPRPQSEPRP | -0.173 |
| RRIRMRPPRLPRPRPRPCVSPRP | -0.0589 |
| RRIRTRPPRLPRPRPRPKSYPRP | -0.364 |

| Sequence | shrunken log2 fold change |
| --- | --- |
| RRIRWRPPRLPRPRPRPEYCPRP | 1.23 |
| RRIRMRPPRLPRPRPRPNNLPRP | -0.259 |
| RRIRIRPPRLPRPRPRPMVDPRP | -0.0165 |
| RRIRYRPPRLPRPRPRPATYPRP | -0.113 |
| RRIRYRPPRLPRPRPRPYWYPRP | -0.322 |
| RRIRARPPRLPRPRPRPSQEPRP | 0.0769 |
| RRIRERPPRLPRPRPRPGFDPRP | 0.0961 |
| RRIRQRPPRLPRPRPRPILRPRP | 0.034 |
| RRIRPRPPRLPRPRPRPIPMPRP | -0.0493 |
| RRIRQRPPRLPRPRPRPLEWPRP | 0.0921 |
| RRIRKRPPRLPRPRPRPFPCPRP | 0.0314 |
| RRIRTRPPRLPRPRPRPIRSPRP | 0.0601 |
| RRIRARPPRLPRPRPRPSMEPRP | 0.146 |
| RRIRRRPPRLPRPRPRPTRKPRP | 0.498 |
| RRIRHRPPRLPRPRPRPGIMPRP | -0.566 |
| RRIRARPPRLPRPRPRPCVPPRP | -0.0952 |
| RRIRFRPPRLPRPRPRPMAAPRP | -0.0736 |
| RRIRVRPPRLPRPRPRPPIIPRP | -0.222 |
| RRIRKRPPRLPRPRPRPFCTPRP | -0.0968 |
| RRIRVRPPRLPRPRPRPMDDPRP | -0.312 |
| RRIRNRPPRLPRPRPRPPRIPRP | 0.325 |
| RRIRHRPPRLPRPRPRPDWWPRP | 0.0937 |
| RRIRQRPPRLPRPRPRPGGCPRP | 0.546 |
| RRIRTRPPRLPRPRPRPNSCPRP | 0.0686 |
| RRIRLRPPRLPRPRPRPFVKPRP | -0.225 |

| Sequence | shrunken log2 fold change |
| --- | --- |
| RRIRIRPPRLPRPRPRPSSMPRP | -0.432 |
| RRIRDRPPRLPRPRPRPINHPRP | -0.229 |
| RRIRKRPPRLPRPRPRPEPWPRP | 0.895 |
| RRIRCRPPRLPRPRPRPDLRPRP | -0.035 |
| RRIRHRPPRLPRPRPRPQCVPRP | 0.00938 |
| RRIRCRPPRLPRPRPRPGTMPRP | 0.0719 |
| RRIRRRPPRLPRPRPRPNTSPRP | -0.116 |
| RRIRHRPPRLPRPRPRPSHDPRP | -0.0756 |
| RRIRIRPPRLPRPRPRPRCPPRP | 0.0321 |
| RRIRCRPPRLPRPRPRPGWRPRP | 0.331 |
| RRIRYRPPRLPRPRPRPSHNPRP | -0.628 |
| RRIRPRPPRLPRPRPRPWDCPRP | -0.0719 |
| RRIRNRPPRLPRPRPRPYVWPRP | -0.135 |
| RRIRHRPPRLPRPRPRPFMCPRP | -0.57 |
| RRIRPRPPRLPRPRPRPPTMPRP | 0.223 |
| RRIRVRPPRLPRPRPRPVSNPRP | -0.0653 |
| RRIRIRPPRLPRPRPRPPFVPRP | 0.104 |
| RRIRKRPPRLPRPRPRPAAHPRP | 0.408 |
| RRIRARPPRLPRPRPRPQGVPRP | -0.128 |
| RRIRPRPPRLPRPRPRPQHSPRP | -0.161 |
| RRIRIRPPRLPRPRPRPFNYPRP | -0.149 |
| RRIRHRPPRLPRPRPRPPPMPRP | 0.557 |
| RRIRQRPPRLPRPRPRPDYNPRP | -0.161 |
| RRIRQRPPRLPRPRPRPSWCPRP | -0.141 |
| RRIRMRPPRLPRPRPRPLNLPRP | -0.0841 |

| Sequence | shrunken log2 fold change |
| --- | --- |
| RRIRYRPPRLPRPRPRPSCPPRP | -0.851 |
| RRIRWRPPRLPRPRPRPGHQPRP | -0.0269 |
| RRIRHRPPRLPRPRPRPHRSPRP | -0.0796 |
| RRIRHRPPRLPRPRPRPNKTPRP | -0.0741 |
| RRIRQRPPRLPRPRPRPQYEPRP | -0.349 |
| RRIRERPPRLPRPRPRPSITPRP | -1.36 |
| RRIRWRPPRLPRPRPRPYRYPRP | 0.0299 |
| RRIRKRPPRLPRPRPRPPEFPRP | 0.0984 |
| RRIRNRPPRLPRPRPRPFHMPRP | -0.458 |
| RRIRTRPPRLPRPRPRPMKAPRP | 0.0679 |
| RRIRNRPPRLPRPRPRPNTAPRP | 0.0213 |
| RRIRGRPPRLPRPRPRPTYRPRP | 0.138 |
| RRIRYRPPRLPRPRPRPTMHPRP | -0.484 |
| RRIRNRPPRLPRPRPRPMDEPRP | 0.358 |
| RRIRYRPPRLPRPRPRPCYSPRP | -0.00871 |
| RRIRNRPPRLPRPRPRPDNIPRP | -0.312 |
| RRIRSRPPRLPRPRPRPYSMPRP | -0.721 |
| RRIRVRPPRLPRPRPRPMGVPRP | -0.0267 |
| RRIRTRPPRLPRPRPRPAIWPRP | 0.238 |
| RRIRERPPRLPRPRPRPQKCPRP | -0.202 |
| RRIRHRPPRLPRPRPRPCWDPRP | 0.0881 |
| RRIRNRPPRLPRPRPRPHPRPRP | 0.0824 |
| RRIRVRPPRLPRPRPRPAVHPRP | -0.021 |
| RRIRERPPRLPRPRPRPGLDPRP | -0.0204 |
| RRIRNRPPRLPRPRPRPDATPRP | 0.0488 |

| Sequence | shrunken log2 fold change |
| --- | --- |
| RRIRNRPPRLPRPRPRPQGAPRP | -0.149 |
| RRIRDRPPRLPRPRPRPTVVPRP | 0.149 |
| RRIRERPPRLPRPRPRPGFVPRP | 0.755 |
| RRIRGRPPRLPRPRPRPMPWPRP | 0.25 |
| RRIRNRPPRLPRPRPRPEDNPRP | 0.0315 |
| RRIRERPPRLPRPRPRPGWDPRP | 0.0203 |
| RRIRERPPRLPRPRPRPISQPRP | -0.058 |
| RRIRCRPPRLPRPRPRPLDVPRP | -0.41 |
| RRIRNRPPRLPRPRPRPGAAPRP | 0.417 |
| RRIRRRPPRLPRPRPRPDNDPRP | 0.104 |
| RRIRSRPPRLPRPRPRPKETPRP | -0.0164 |
| RRIRTRPPRLPRPRPRPSCLPRP | -0.624 |
| RRIRARPPRLPRPRPRPMFKPRP | -0.106 |
| RRIRCRPPRLPRPRPRPLHNPRP | -0.264 |
| RRIRIRPPRLPRPRPRPCVPPRP | -0.162 |
| RRIRTRPPRLPRPRPRPVPTPRP | 3.08 |
| RRIRMRPPRLPRPRPRPSPGPRP | 0.564 |
| RRIRGRPPRLPRPRPRPYMNPRP | -0.23 |
| RRIRGRPPRLPRPRPRPSTTPRP | 0.875 |
| RRIRIRPPRLPRPRPRPPWSPRP | 0.219 |
| RRIRFRPPRLPRPRPRPCAMPRP | -0.561 |
| RRIRTRPPRLPRPRPRPKGEPRP | 0.0539 |
| RRIRPRPPRLPRPRPRPLVQPRP | -0.0898 |
| RRIRTRPPRLPRPRPRPMMSPRP | -0.282 |
| RRIRARPPRLPRPRPRPKVKPRP | 0.171 |

| Sequence | shrunken log2 fold change |
| --- | --- |
| RRIRHRPPRLPRPRPRPWWCPRP | -0.034 |
| RRIRFRPPRLPRPRPRPWGVPRP | -0.517 |
| RRIRERPPRLPRPRPRPFQPPRP | -0.311 |
| RRIRVRPPRLPRPRPRPHPDPRP | 0.015 |
| RRIRHRPPRLPRPRPRPTGVPRP | 0.18 |
| RRIRWRPPRLPRPRPRPPSFPRP | -0.0861 |
| RRIRSRPPRLPRPRPRPTNGPRP | 0.0899 |
| RRIRIRPPRLPRPRPRPFDRPRP | 4.11 |
| RRIRLRPPRLPRPRPRPLKQPRP | -0.0926 |
| RRIRMRPPRLPRPRPRPTNEPRP | 0.282 |
| RRIRDRPPRLPRPRPRPPFVPRP | 0.0811 |
| RRIRPRPPRLPRPRPRPFRAPRP | 0.116 |
| RRIRDRPPRLPRPRPRPRQRPRP | 0.708 |
| RRIRMRPPRLPRPRPRPHINPRP | -0.339 |
| RRIRHRPPRLPRPRPRPNKVPRP | -0.238 |
| RRIRARPPRLPRPRPRPWKMPRP | -0.235 |
| RRIRDRPPRLPRPRPRPSWRPRP | 0.0848 |
| RRIRFRPPRLPRPRPRPPQEPRP | 0.258 |
| RRIRWRPPRLPRPRPRPFFTPRP | -0.0367 |
| RRIRPRPPRLPRPRPRPQTEPRP | 0.0275 |
| RRIRDRPPRLPRPRPRPWYMPRP | -0.315 |
| RRIRIRPPRLPRPRPRPWAEPRP | -0.167 |
| RRIRFRPPRLPRPRPRPTKPPRP | -0.00249 |
| RRIRLRPPRLPRPRPRPPDEPRP | 0.264 |
| RRIRCRPPRLPRPRPRPTESPRP | 0.101 |

Source: the supplement of paper PMC9112550, “Optimization of the antimicrobial peptide Bac7 by deep mutational scanning” (BMC Biology, 2022)
